Reference: patent US20210340207A1 (Merck Sharp & Dohme, published 2021)
Residue numbers refer to the chain shown, from its start. Names may count otherwise. Blank lines part the entries; values can stand above or below the binder they belong to. *1 amine or outer side, *2 acyl side, *3 side chain or, on linkers, in order; H or OH if unused. [ ]: non-standard residue; d: D form. pAMF = para-azidomethylphenylalanine, [N-]=[N+]=NCc1ccc(C[C@H](N[*:1])C(=O)[*:2])cc1

Columns and labels:
Biotin-IL-2Rα-His = target: T1, Biotin-IL-2Rα-His (UniProt P01589 22-213, limits assumed, biotin-labeled (site not stated)); assay: SPR (Biacore T200)
T1 construct: also called biotin-labeled IL-2Rα; not shown: His tag
T1 sequence (looked up): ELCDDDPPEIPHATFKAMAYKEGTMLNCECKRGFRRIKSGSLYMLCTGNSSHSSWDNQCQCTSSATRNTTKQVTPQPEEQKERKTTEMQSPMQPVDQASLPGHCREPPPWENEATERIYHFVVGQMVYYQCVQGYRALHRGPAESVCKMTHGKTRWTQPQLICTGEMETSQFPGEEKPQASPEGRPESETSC

Biotin-IL-2Rβ-His = target: T2, Biotin-IL-2Rβ-His (UniProt P14784 27-239, limits assumed, biotin-labeled (site not stated)); assay: SPR (Biacore T200)
T2 construct: also called biotin-labeled IL-2Rβ; not shown: His tag
T2 sequence (looked up): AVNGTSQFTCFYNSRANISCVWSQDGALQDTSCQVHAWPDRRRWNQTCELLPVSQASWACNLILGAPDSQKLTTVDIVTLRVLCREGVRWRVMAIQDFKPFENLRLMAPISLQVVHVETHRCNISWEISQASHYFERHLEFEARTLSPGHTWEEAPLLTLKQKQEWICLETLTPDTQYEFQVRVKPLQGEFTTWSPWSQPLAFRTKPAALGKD

[1] = target: T3, human IL-2Rβγc (on DERL-7 cells, U2OS IL2RB/IL2RG cells, CD25 knockout Kit225-STAT5 cells, primary CD8+ CTLs) (human, UniProt P14784 27-551; P31785 23-369); assay: cell-based or functional assay
T3 sequence (looked up) 1: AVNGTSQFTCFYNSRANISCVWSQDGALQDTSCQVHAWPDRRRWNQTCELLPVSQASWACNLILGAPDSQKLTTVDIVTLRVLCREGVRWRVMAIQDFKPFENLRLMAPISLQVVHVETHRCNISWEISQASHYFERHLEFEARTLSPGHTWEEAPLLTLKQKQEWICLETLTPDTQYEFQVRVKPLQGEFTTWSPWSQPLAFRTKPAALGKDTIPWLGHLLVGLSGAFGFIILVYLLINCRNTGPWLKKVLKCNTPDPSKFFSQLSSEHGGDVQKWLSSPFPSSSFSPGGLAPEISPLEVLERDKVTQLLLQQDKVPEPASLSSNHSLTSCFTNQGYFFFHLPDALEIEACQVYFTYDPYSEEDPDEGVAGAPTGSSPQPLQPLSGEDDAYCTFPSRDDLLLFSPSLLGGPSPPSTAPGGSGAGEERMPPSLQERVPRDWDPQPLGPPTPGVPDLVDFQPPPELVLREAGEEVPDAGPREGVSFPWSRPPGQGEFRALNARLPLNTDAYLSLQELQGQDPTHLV
T3 sequence (looked up) 2: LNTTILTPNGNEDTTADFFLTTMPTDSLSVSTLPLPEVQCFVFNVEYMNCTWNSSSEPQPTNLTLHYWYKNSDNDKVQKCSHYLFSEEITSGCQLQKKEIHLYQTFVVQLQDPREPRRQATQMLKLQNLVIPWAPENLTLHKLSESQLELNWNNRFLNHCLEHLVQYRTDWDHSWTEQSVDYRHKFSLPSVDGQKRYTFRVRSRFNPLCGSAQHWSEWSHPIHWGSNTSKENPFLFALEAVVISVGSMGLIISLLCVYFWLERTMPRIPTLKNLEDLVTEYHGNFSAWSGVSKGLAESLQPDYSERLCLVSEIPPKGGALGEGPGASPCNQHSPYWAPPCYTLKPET

[2] = target: T4, mouse IL-2Rαβγc (on CTLL2-STAT5 reporter cells) (mouse, UniProt P01590 22-268; P16297 27-539; P34902 23-369); assay: cell-based or functional assay
T4 sequence (looked up) 1: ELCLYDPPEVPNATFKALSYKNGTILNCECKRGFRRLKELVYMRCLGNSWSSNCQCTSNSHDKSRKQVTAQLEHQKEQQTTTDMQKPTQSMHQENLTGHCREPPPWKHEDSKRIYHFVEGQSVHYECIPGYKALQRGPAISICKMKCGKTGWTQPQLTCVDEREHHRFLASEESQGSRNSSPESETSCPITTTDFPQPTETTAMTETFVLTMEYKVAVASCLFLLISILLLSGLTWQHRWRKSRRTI
T4 sequence (looked up) 2: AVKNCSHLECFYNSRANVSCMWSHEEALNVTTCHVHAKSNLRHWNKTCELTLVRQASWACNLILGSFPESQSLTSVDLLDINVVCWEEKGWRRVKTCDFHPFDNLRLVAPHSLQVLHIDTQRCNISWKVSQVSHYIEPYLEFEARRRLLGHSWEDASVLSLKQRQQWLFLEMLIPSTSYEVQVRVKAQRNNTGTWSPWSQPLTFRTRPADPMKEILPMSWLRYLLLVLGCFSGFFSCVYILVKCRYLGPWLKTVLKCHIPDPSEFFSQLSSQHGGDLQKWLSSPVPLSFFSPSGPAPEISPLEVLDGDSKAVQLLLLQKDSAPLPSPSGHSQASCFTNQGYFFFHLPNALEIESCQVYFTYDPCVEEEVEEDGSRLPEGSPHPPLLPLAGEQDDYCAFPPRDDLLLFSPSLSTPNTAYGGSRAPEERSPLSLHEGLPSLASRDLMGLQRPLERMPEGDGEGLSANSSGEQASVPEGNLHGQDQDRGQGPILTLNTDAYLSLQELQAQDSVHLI
T4 sequence (looked up) 3: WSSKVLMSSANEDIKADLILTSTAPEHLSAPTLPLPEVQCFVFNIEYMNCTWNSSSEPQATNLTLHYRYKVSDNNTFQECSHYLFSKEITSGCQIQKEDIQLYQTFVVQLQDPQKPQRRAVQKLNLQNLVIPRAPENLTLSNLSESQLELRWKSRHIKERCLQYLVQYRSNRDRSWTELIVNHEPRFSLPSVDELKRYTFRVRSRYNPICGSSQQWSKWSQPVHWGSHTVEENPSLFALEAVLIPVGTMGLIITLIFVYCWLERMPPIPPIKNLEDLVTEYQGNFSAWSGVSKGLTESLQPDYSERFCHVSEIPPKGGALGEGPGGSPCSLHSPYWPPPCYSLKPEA

[3] = target: T5, human IL-2Rαβγc (on Kit225-STAT5 reporter cells, NK-92 cells, primary Treg cells) (human, UniProt P01589 22-272; P14784 27-551; P31785 23-369); assay: cell-based or functional assay
T5 sequence (looked up) 1: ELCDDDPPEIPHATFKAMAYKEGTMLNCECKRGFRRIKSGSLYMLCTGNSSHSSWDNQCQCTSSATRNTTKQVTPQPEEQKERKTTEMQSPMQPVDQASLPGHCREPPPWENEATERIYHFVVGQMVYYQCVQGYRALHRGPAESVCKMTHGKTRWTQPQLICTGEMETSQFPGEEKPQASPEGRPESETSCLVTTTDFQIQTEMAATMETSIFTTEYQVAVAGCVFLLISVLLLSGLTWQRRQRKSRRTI
T5 sequence (looked up) 2: T3 sequence (looked up) 1
T5 sequence (looked up) 3: T3 sequence (looked up) 2

[4] = target: T4, mouse IL-2Rαβγc (on CTLL2-STAT5 …); assay: cell-based or functional assay; remark: listed apart in the source
[5] = target: T3, human IL-2Rβγc (on DERL-7 cells, U2OS …); assay: cell-based or functional assay; remark: listed apart in the source
Human IL-2Rβ (Table 7B) = target: T6, Human IL-2Rβ (Table 7B) (human, UniProt P14784 27-239, limits assumed); assay: SPR (Biacore T200)
T6 sequence (looked up): T2 sequence (looked up)

[6] = target: T3, human IL-2Rβγc (on DERL-7 cells, U2OS …); assay: cell-based or functional assay; remark: listed apart in the source
[7] = target: T5, human IL-2Rαβγc (on Kit225-STAT5 …); assay: cell-based or functional assay; remark: listed apart in the source

B2: Ald-6HIS_T40D/F41K (ligand)
chain: PTSSSTKKTQLQLEHLLLDLQMILNGINNYKNPKLTRMLDKKFYMPKKATELKHLQCLEEELKPLEEVLNLAQSKNFHLRPRDLISNINVIVLELKGSETTFMCEYADETATIVEFLNRWITFSQSIISTLTGGSHHHHHH
NK-92 EC50 Fold Change [3]: 2.81 fold | NK-92 cell assay EC50 [3]: 0.02 nM | STAT5-CTLL2 EC50 [4]: 6.31 nM | STAT5-CTLL2 EC50 Fold Change [4]: 699 fold | U2OS B/BG EC50 Fold Change [5]: 1.84 fold | U2OS B/BG bridging cell assay EC50 [5]: 0.294 nM | Kd (Human IL-2Rβ (Table 7B)): 980 nM | koff (Human IL-2Rβ (Table 7B)): 0.32 s⁻¹ | kon (Human IL-2Rβ (Table 7B)): 330000 M⁻¹ s⁻¹ | DERL7 EC50 Fold Change [6]: 0.65 fold | DERL7 cell assay EC50 [6]: 0.012 nM

B3: Ald-6HIS_T40D/F41K/E60T (ligand)
chain: B2 chain with E60T
NK-92 EC50 Fold Change [3]: 9.09 fold | NK-92 cell assay EC50 [3]: 0.063 nM | STAT5-CTLL2 EC50 [4]: 98.5 nM | STAT5-CTLL2 EC50 Fold Change [4]: 10900 fold | U2OS B/BG EC50 Fold Change [5]: 3.15 fold | U2OS B/BG bridging cell assay EC50 [5]: 0.503 nM | Kd (Human IL-2Rβ (Table 7B)): 1000 nM | koff (Human IL-2Rβ (Table 7B)): 0.36 s⁻¹ | kon (Human IL-2Rβ (Table 7B)): 350000 M⁻¹ s⁻¹ | DERL7 EC50 Fold Change [6]: 1.4 fold | DERL7 cell assay EC50 [6]: 0.025 nM

B4: Ald-6HIS_E61S/Y106A (ligand)
chain: B2 chain with D40T, K41F, E61S, Y106A
Kd (Biotin-IL-2Rβ-His): 2000 nM | fold reduction over wt (Biotin-IL-2Rβ-His): 5 fold | U2OS-IL2Rbg EC50 [1]: 2870 pM | CTLL2-STAT5 EC50 [2]: > 7000 pM

B6: Ald-6HIS_E60T/E61S/P64A (ligand)
chain: B2 chain with D40T, K41F, E60T, E61S, P64A
Kd (Biotin-IL-2Rα-His): 2000 nM | fold reduction over wt (Biotin-IL-2Rα-His): 200 fold | Kd (Biotin-IL-2Rβ-His): 1000 nM | fold reduction over wt (Biotin-IL-2Rβ-His): 3 fold | U2OS-IL2Rbg EC50 [1]: 1960 pM | CTLL2-STAT5 EC50 [2]: 1090 pM

B7: Ald-6HIS_E60T/P64A (ligand)
chain: B2 chain with D40T, K41F, E60T, P64A
Kd (Biotin-IL-2Rα-His): 60 nM | fold reduction over wt (Biotin-IL-2Rα-His): 6 fold | Kd (Biotin-IL-2Rβ-His): 700 nM | fold reduction over wt (Biotin-IL-2Rβ-His): 2 fold | U2OS-IL2Rbg EC50 [1]: 499 pM | CTLL2-STAT5 EC50 [2]: 24 pM

B8: Ald-6HIS_E61S/P64A (ligand)
chain: B2 chain with D40T, K41F, E61S, P64A
Kd (Biotin-IL-2Rα-His): 500 nM | fold reduction over wt (Biotin-IL-2Rα-His): 50 fold | Kd (Biotin-IL-2Rβ-His): 500 nM | fold reduction over wt (Biotin-IL-2Rβ-His): 1 fold | U2OS-IL2Rbg EC50 [1]: 634 pM | CTLL2-STAT5 EC50 [2]: 213 pM

Continued, values first:

Kd (Biotin-IL-2Rα-His): 800 nM | fold reduction over wt (Biotin-IL-2Rα-His): 80 fold | Kd (Biotin-IL-2Rβ-His): 2000 nM | fold reduction over wt (Biotin-IL-2Rβ-His): 5 fold | U2OS-IL2Rbg EC50 [1]: 1950 pM | CTLL2-STAT5 EC50 [2]: 525 pM
B1: Ald-6HIS_E60T/E61S (ligand)
chain: B2 chain with D40T, K41F, E60T, E61S

U2OS-IL2Rbg EC50 [1]: 5770 pM | CTLL2-STAT5 EC50 [2]: > 7000 pM
B5: Ald-6HIS_E61S/P64A/Y106A (ligand)
chain: B2 chain with D40T, K41F, E61S, P64A, Y106A

Kit225-STAT5 reporter, fold lower activity than aldesleukin [7]: 190 fold
B9: Ald_S4pAMF/R37A/F41K (MUT1) (ligand)
chain: PTS[pAMF]STKKTQLQLEHLLLDLQMILNGINNYKNPKLTAMLTKKFYMPKKATELKHLQCLEEELKPLEEVLNLAQSKNFHLRPRDLISNINVIVLELKGSETTFMCEYADETATIVEFLNRWITFSQSIISTLT
modifications: ends and bridges not checked
